Results as given in PMC5737521 (Nucleic Acids Research, 2017).

Columns and labels:
[1] = target: the molecule itself; test: crystal structure
[2] = target: T1, H. sapiens JunD bZIP domain (residues Q266-V332) (human, UniProt P17535 266-332); test: crystal structure
T1 sequence: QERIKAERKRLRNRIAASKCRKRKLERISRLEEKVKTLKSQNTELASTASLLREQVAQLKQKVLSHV

[3] = target: the molecule itself; test: fluorescence polarisation
[4] = target: T2, FosB bZIP domain;JunD bZIP domain (Homo sapiens (cloned from identical Mus …, UniProt P53539;P17535 153-219;266-332, |)); test: fluorescence polarization
T2 sequence 1: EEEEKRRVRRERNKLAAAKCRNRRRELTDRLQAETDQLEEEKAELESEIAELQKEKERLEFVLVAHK
T2 sequence 2: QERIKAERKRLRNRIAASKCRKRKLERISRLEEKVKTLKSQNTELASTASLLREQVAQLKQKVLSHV

B1: Homo sapiens FosB bZIP domain (residues E153-K219) (domain or fragment)
chain: EEEEKRRVRRERNKLAAAKCRNRRRELTDRLQAETDQLEEEKAELESEIAELQKEKERLEFVLVAHK
B1: binds [1]; binds [2].

B2: reduced FosB/JunD bZIP heterodimer (FJ^red) (complex)
chain 1: EEEEKRRVRRERNKLAAAKCRNRRRELTDRLQAETDQLEEEKAELESEIAELQKEKERLEFVLVAHK
chain 2: QERIKAERKRLRNRIAASKCRKRKLERISRLEEKVKTLKSQNTELASTASLLREQVAQLKQKVLSHV
B2: binds [3].

B3: oxidized form of FosB/JunD bZIP heterodimer (FJ^oxi) (complex)
chain 1: EEEEKRRVRRERNKLAAAKCRNRRRELTDRLQAETDQLEEEKAELESEIAELQKEKERLEFVLVAHK
chain 2: QERIKAERKRLRNRIAASKCRKRKLERISRLEEKVKTLKSQNTELASTASLLREQVAQLKQKVLSHV
B3: binds [1].

B4: TAMRA AP-1 19-mer (cyclin-dependent kinase 5 promoter) (dsDNA)
DNA 1: CGTCGGTGACTCAAAACAC
DNA 2: GTGTTTTGAGTCACCGACG
B4: binds [4].
